# Test results from patent US20140087995A1 (published 2014).
# Numbered stars: 1 amine (or outer) side, 2 acyl side, 3 side chain; on linkers, the order of the positions; unused ones are H or OH. Bridge positions count the residues as written; N and C are the ends. Side chains are listed from the residue outwards. Ends that are not written are not given here. * marks the point of attachment. C20 diacid = O=C(O)CCCCCCCCCCCCCCCCCCC(=O)*; γGlu = O=C(O)[C@H](CCC(=O)[*:2])N[*:1]; AEEA = NCCOCCOCC(=O)O
# T1: rat calcitonin receptor (rat, UniProt P32214 25-516)
# T1 construct: whole, on cells; Used as membranes prepared from the transfected cells; also called rCTR; rat calcitonin (a) receptor
# T1 sequence (looked up): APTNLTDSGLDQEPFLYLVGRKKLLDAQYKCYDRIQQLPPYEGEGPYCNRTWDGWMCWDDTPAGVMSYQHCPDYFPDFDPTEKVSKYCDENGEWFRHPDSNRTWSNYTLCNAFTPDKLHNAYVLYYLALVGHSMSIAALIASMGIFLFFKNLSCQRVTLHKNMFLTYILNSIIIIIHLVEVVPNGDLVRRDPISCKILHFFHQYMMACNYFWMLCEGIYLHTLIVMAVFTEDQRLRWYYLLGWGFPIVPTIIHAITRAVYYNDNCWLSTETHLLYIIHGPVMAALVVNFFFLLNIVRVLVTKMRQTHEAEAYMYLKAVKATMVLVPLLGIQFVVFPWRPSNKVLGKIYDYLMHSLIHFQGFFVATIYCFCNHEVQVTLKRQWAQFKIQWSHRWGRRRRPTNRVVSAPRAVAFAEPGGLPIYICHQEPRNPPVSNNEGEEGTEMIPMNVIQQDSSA
# T2: human amylin receptor (amylin 3(a) receptor: human calcitonin receptor plus RAMP-3) (human, UniProt P30988 25-474; O60896 24-148)
# T2 sequence (looked up) 1: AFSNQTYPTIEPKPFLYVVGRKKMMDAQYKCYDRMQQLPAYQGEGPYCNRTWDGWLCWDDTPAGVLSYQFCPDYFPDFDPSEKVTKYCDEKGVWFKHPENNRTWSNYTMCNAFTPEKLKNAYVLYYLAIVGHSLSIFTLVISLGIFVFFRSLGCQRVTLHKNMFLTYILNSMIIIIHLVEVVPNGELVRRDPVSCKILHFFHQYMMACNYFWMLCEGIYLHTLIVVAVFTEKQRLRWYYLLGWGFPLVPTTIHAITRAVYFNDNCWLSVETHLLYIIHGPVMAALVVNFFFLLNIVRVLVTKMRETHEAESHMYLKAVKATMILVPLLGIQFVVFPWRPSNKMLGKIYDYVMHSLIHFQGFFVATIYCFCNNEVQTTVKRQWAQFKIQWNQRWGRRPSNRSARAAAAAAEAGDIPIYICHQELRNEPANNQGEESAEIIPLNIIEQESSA
# T2 sequence (looked up) 2: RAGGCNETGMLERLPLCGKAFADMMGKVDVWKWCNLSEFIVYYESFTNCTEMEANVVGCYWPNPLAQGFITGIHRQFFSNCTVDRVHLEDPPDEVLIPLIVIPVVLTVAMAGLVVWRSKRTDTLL
# T3: human calcitonin receptor (human, UniProt P30988 25-474)
# T3 sequence (looked up): T2 sequence (looked up) 1
# T4: rat amylin receptor (rat calcitonin receptor + rat RAMP 3) (rat, UniProt P32214 25-516; Q9JJ73 23-147)
# T4 construct: whole, on cells; Used as membranes prepared from the transfected cells; also called rAmylin-R; rat amylin 3(a) receptor
# T4 sequence (looked up) 1: T1 sequence (looked up)
# T4 sequence (looked up) 2: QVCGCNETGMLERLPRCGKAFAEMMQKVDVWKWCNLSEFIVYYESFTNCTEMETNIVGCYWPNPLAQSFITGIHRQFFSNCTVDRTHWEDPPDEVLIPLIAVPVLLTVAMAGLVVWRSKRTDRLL
# B1: N^ε1-[2-[2-[2-[[(4S)-4-carboxy-4-(19-carboxynonadecanoylamino)butanoyl]amino]ethoxy]ethoxy]acetyl]-[Arg17,Pro21,Pro27,Arg35]-h-amylin (peptide)
# peptide: K([AEEA-γGlu-C20 diacid])CNTATCATQRLANFLRHSSPNFGAIPSSTNVGSRTY-NH2
# modifications: disulfide 2-7; N-terminus assumed
# SMILES: CC[C@H](C)[C@H](NC(=O)[C@H](C)NC(=O)CNC(=O)[C@H](Cc1ccccc1)NC(=O)[C@H](CC(N)=O)NC(=O)[C@@H]1CCCN1C(=O)[C@H](CO)NC(=O)[C@H](CO)NC(=O)[C@H](Cc1c[nH]cn1)NC(=O)[C@H](CCCNC(=N)N)NC(=O)[C@H](CC(C)C)NC(=O)[C@H](Cc1ccccc1)NC(=O)[C@H](CC(N)=O)NC(=O)[C@H](C)NC(=O)[C@H](CC(C)C)NC(=O)[C@H](CCCNC(=N)N)NC(=O)[C@H](CCC(N)=O)NC(=O)[C@@H](NC(=O)[C@H](C)NC(=O)[C@@H]1CSSC[C@H](NC(=O)[C@@H](N)CCCCNC(=O)COCCOCCNC(=O)CC[C@H](NC(=O)CCCCCCCCCCCCCCCCCCC(=O)O)C(=O)O)C(=O)N[C@@H](CC(N)=O)C(=O)N[C@@H]([C@@H](C)O)C(=O)N[C@@H](C)C(=O)N[C@@H]([C@@H](C)O)C(=O)N1)[C@@H](C)O)C(=O)N1CCC[C@H]1C(=O)N[C@@H](CO)C(=O)N[C@@H](CO)C(=O)N[C@H](C(=O)N[C@@H](CC(N)=O)C(=O)N[C@H](C(=O)NCC(=O)N[C@@H](CO)C(=O)N[C@@H](CCCNC(=N)N)C(=O)N[C@H](C(=O)N[C@@H](Cc1ccc(O)cc1)C(N)=O)[C@@H](C)O)C(C)C)[C@@H](C)O
# notes: Derivative of human amylin; also called compound 38
# B2: N^ε-[(4S)-4-carboxy-4-(19-carboxynonadecanoylamino)butanoyl]Lys[Arg1,Arg17,Pro21,Pro27,His35]-h-amylin (peptide)
# peptide: K([γGlu-C20 diacid])RCNTATCATQRLANFLRHSSPNFGAIPSSTNVGSHTY-NH2
# modifications: disulfide 3-8; N-terminus assumed
# SMILES: CC[C@H](C)[C@H](NC(=O)[C@H](C)NC(=O)CNC(=O)[C@H](Cc1ccccc1)NC(=O)[C@H](CC(N)=O)NC(=O)[C@@H]1CCCN1C(=O)[C@H](CO)NC(=O)[C@H](CO)NC(=O)[C@H](Cc1c[nH]cn1)NC(=O)[C@H](CCCNC(=N)N)NC(=O)[C@H](CC(C)C)NC(=O)[C@H](Cc1ccccc1)NC(=O)[C@H](CC(N)=O)NC(=O)[C@H](C)NC(=O)[C@H](CC(C)C)NC(=O)[C@H](CCCNC(=N)N)NC(=O)[C@H](CCC(N)=O)NC(=O)[C@@H](NC(=O)[C@H](C)NC(=O)[C@@H]1CSSC[C@H](NC(=O)[C@H](CCCNC(=N)N)NC(=O)[C@@H](N)CCCCNC(=O)CC[C@H](NC(=O)CCCCCCCCCCCCCCCCCCC(=O)O)C(=O)O)C(=O)N[C@@H](CC(N)=O)C(=O)N[C@@H]([C@@H](C)O)C(=O)N[C@@H](C)C(=O)N[C@@H]([C@@H](C)O)C(=O)N1)[C@@H](C)O)C(=O)N1CCC[C@H]1C(=O)N[C@@H](CO)C(=O)N[C@@H](CO)C(=O)N[C@H](C(=O)N[C@@H](CC(N)=O)C(=O)N[C@H](C(=O)NCC(=O)N[C@@H](CO)C(=O)N[C@@H](Cc1c[nH]cn1)C(=O)N[C@H](C(=O)N[C@@H](Cc1ccc(O)cc1)C(N)=O)[C@@H](C)O)C(C)C)[C@@H](C)O
# notes: also called compound 44
# B3: N^-1-[(4S)-4-carboxy-4-(19-carboxynonadecanoylamino)butanoyl]-Gly[Arg1,Arg17,Pro21,Pro27,His35]-h-amylin (peptide)
# peptide: {C20 diacid-γGlu}-GRCNTATCATQRLANFLRHSSPNFGAIPSSTNVGSHTY-NH2
# modifications: disulfide 3-8
# SMILES: CC[C@H](C)[C@H](NC(=O)[C@H](C)NC(=O)CNC(=O)[C@H](Cc1ccccc1)NC(=O)[C@H](CC(N)=O)NC(=O)[C@@H]1CCCN1C(=O)[C@H](CO)NC(=O)[C@H](CO)NC(=O)[C@H](Cc1c[nH]cn1)NC(=O)[C@H](CCCNC(=N)N)NC(=O)[C@H](CC(C)C)NC(=O)[C@H](Cc1ccccc1)NC(=O)[C@H](CC(N)=O)NC(=O)[C@H](C)NC(=O)[C@H](CC(C)C)NC(=O)[C@H](CCCNC(=N)N)NC(=O)[C@H](CCC(N)=O)NC(=O)[C@@H](NC(=O)[C@H](C)NC(=O)[C@@H]1CSSC[C@H](NC(=O)[C@H](CCCNC(=N)N)NC(=O)CNC(=O)CC[C@H](NC(=O)CCCCCCCCCCCCCCCCCCC(=O)O)C(=O)O)C(=O)N[C@@H](CC(N)=O)C(=O)N[C@@H]([C@@H](C)O)C(=O)N[C@@H](C)C(=O)N[C@@H]([C@@H](C)O)C(=O)N1)[C@@H](C)O)C(=O)N1CCC[C@H]1C(=O)N[C@@H](CO)C(=O)N[C@@H](CO)C(=O)N[C@H](C(=O)N[C@@H](CC(N)=O)C(=O)N[C@H](C(=O)NCC(=O)N[C@@H](CO)C(=O)N[C@@H](Cc1c[nH]cn1)C(=O)N[C@H](C(=O)N[C@@H](Cc1ccc(O)cc1)C(N)=O)[C@@H](C)O)C(C)C)[C@@H](C)O
# notes: also called compound 47
# B4: N^-1-[(4S)-4-carboxy-4-(19-carboxynonadecanoylamino)butanoyl]-Gly[Arg1,Arg17,Pro21,Pro27]-h-amylin (peptide)
# peptide: {C20 diacid-γGlu}-GRCNTATCATQRLANFLRHSSPNFGAIPSSTNVGSNTY-NH2
# modifications: disulfide 3-8
# SMILES: CC[C@H](C)[C@H](NC(=O)[C@H](C)NC(=O)CNC(=O)[C@H](Cc1ccccc1)NC(=O)[C@H](CC(N)=O)NC(=O)[C@@H]1CCCN1C(=O)[C@H](CO)NC(=O)[C@H](CO)NC(=O)[C@H](Cc1c[nH]cn1)NC(=O)[C@H](CCCNC(=N)N)NC(=O)[C@H](CC(C)C)NC(=O)[C@H](Cc1ccccc1)NC(=O)[C@H](CC(N)=O)NC(=O)[C@H](C)NC(=O)[C@H](CC(C)C)NC(=O)[C@H](CCCNC(=N)N)NC(=O)[C@H](CCC(N)=O)NC(=O)[C@@H](NC(=O)[C@H](C)NC(=O)[C@@H]1CSSC[C@H](NC(=O)[C@H](CCCNC(=N)N)NC(=O)CNC(=O)CC[C@H](NC(=O)CCCCCCCCCCCCCCCCCCC(=O)O)C(=O)O)C(=O)N[C@@H](CC(N)=O)C(=O)N[C@@H]([C@@H](C)O)C(=O)N[C@@H](C)C(=O)N[C@@H]([C@@H](C)O)C(=O)N1)[C@@H](C)O)C(=O)N1CCC[C@H]1C(=O)N[C@@H](CO)C(=O)N[C@@H](CO)C(=O)N[C@H](C(=O)N[C@@H](CC(N)=O)C(=O)N[C@H](C(=O)NCC(=O)N[C@@H](CO)C(=O)N[C@@H](CC(N)=O)C(=O)N[C@H](C(=O)N[C@@H](Cc1ccc(O)cc1)C(N)=O)[C@@H](C)O)C(C)C)[C@@H](C)O
# notes: also called compound 46
# B5: N^ε-[2-[2-[2-[[(4S)-4-carboxy-4-(19-carboxynonadecanoylamino)butanoyl]amino]ethoxy]ethoxy]acetyl]Lys[Arg1,Arg17,Pro21,Pro27,His35]-h-amylin (peptide)
# peptide: K([AEEA-γGlu-C20 diacid])RCNTATCATQRLANFLRHSSPNFGAIPSSTNVGSHTY-NH2
# modifications: disulfide 3-8; N-terminus assumed
# SMILES: CC[C@H](C)[C@H](NC(=O)[C@H](C)NC(=O)CNC(=O)[C@H](Cc1ccccc1)NC(=O)[C@H](CC(N)=O)NC(=O)[C@@H]1CCCN1C(=O)[C@H](CO)NC(=O)[C@H](CO)NC(=O)[C@H](Cc1c[nH]cn1)NC(=O)[C@H](CCCNC(=N)N)NC(=O)[C@H](CC(C)C)NC(=O)[C@H](Cc1ccccc1)NC(=O)[C@H](CC(N)=O)NC(=O)[C@H](C)NC(=O)[C@H](CC(C)C)NC(=O)[C@H](CCCNC(=N)N)NC(=O)[C@H](CCC(N)=O)NC(=O)[C@@H](NC(=O)[C@H](C)NC(=O)[C@@H]1CSSC[C@H](NC(=O)[C@H](CCCNC(=N)N)NC(=O)[C@@H](N)CCCCNC(=O)COCCOCCNC(=O)CC[C@H](NC(=O)CCCCCCCCCCCCCCCCCCC(=O)O)C(=O)O)C(=O)N[C@@H](CC(N)=O)C(=O)N[C@@H]([C@@H](C)O)C(=O)N[C@@H](C)C(=O)N[C@@H]([C@@H](C)O)C(=O)N1)[C@@H](C)O)C(=O)N1CCC[C@H]1C(=O)N[C@@H](CO)C(=O)N[C@@H](CO)C(=O)N[C@H](C(=O)N[C@@H](CC(N)=O)C(=O)N[C@H](C(=O)NCC(=O)N[C@@H](CO)C(=O)N[C@@H](Cc1c[nH]cn1)C(=O)N[C@H](C(=O)N[C@@H](Cc1ccc(O)cc1)C(N)=O)[C@@H](C)O)C(C)C)[C@@H](C)O
# notes: also called compound 45
# Molecular target: T1, rat calcitonin receptor
# Experiment: SPA competition with 125I-calcitonin, membranes of BHK cells with rat calcitonin receptor (Assay VIII)
row,Binder,IC50 [nM]
1,B1,38

# Molecular target: T2, human amylin receptor (amylin 3(a) …)
# Experiment: cell-based or functional assay
Binder,Ratio hCT/hAmylin funct.,hAmylin-R funct. EC50 (pM)
B2,24,198
B3,6,222
B4,10.2,88
B5,17,594

# Molecular target: T3, human calcitonin receptor
# Experiment: cell-based or functional assay
row,Binder,hCTR funct. EC50 (pM)
1,B2,4750
2,B3,1320
3,B4,899
4,B5,10100

# Molecular target: T4, rat amylin receptor (rat calcitonin …)
# Experiment: SPA competition with 125I-rat amylin, membranes of BHK cells with rat calcitonin receptor + rat RAMP3 (Assay VI)
row,Binder,IC50 [nM]
1,B1,0.383

# Molecular target: T2, human amylin receptor (amylin 3(a) …)
# Experiment: SPA competition binding, displacement of 125I-rat amylin, membranes of BHK amylin 3(a)/CRE-luc cells
# Outline: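 SPA beads with BHK Amylin 3(a)/CRE-luc cell membranes (35 ng/μL final) in 50 mM Hepes pH 7.4, 1 mM CaCl2, 5 mM MgCl₂, 0.1% OA, 0.02% Tween20.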
row,Binder,IC50 [nM]
1,B2,0.275
2,B3,0.344
3,B4,0.195
4,B5,0.552
